How the values were obtained:
[1] = molecular target: T1, C-terminally truncated Ste2p F38Y (Saccharomyces cerevisiae, UniProt D6VTK4 1-303, F38Y); assay: flow cytometry on cells
T1 sequence (looked up): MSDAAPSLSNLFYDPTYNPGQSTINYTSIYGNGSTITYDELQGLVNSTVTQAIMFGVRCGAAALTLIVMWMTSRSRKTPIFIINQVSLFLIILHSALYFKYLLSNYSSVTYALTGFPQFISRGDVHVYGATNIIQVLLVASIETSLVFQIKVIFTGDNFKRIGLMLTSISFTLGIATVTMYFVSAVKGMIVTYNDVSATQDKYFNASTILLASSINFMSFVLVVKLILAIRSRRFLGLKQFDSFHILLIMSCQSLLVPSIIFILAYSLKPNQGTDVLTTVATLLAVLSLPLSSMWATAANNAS

[2] = molecular target: T2, C-terminally truncated wild-type Ste2p (Saccharomyces cerevisiae, UniProt D6VTK4 1-303); assay: flow cytometry on cells
T2 sequence (looked up): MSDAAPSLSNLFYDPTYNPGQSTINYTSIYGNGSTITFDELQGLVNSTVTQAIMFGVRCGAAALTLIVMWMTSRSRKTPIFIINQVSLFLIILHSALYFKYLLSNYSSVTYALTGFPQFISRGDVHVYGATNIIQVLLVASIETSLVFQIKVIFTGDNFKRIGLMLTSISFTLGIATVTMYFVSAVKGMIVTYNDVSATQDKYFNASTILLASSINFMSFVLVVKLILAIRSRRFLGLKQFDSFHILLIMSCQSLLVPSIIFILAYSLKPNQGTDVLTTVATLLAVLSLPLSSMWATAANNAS

Kd [1]: 64 ± 7.9 nM | Kd [2]: 45 ± 1.7 nM
B1: [K^7(NBD),Nle^12] α-factor (peptide)
chain: WHWLQLKPGQPMY
modifications: NBD (7-nitrobenz-2-oxa-1,3-diazol-4-yl) conjugated to the lysine at position 7; norleucine at position 12 in place of methionine

Reference: paper PMC4405178 (Biochemistry, 2015)
